The values that follow come from patent US20090099080A1 (UNIVERSITY OF MASSACHUSETTS, published 2009).

For the experiment, the target named is T1, GST (UniProt P08515 1-218 = GST).
T1 construct: Control for the GST fusion baits; also called glutathione S-transferase (control)
In words: GST pull down of recombinant CypD, CypD immunoblot.

T1 sequence (P08515 whole entry, the tested form may be a part): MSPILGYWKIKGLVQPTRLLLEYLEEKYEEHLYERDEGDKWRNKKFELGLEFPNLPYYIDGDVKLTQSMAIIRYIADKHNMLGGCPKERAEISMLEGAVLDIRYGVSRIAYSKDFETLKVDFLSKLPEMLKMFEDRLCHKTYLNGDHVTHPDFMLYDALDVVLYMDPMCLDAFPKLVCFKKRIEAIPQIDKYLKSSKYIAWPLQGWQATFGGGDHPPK

B1: recombinant CypD (purified, in solution) (enzyme)
chain: not shown
Regarding B1, the binding result is given as “no binding”.
